From the supplement of paper PMC6757056
± gives the standard deviation of the averaged measurements.

B1: library; a variant is named by its letters at N, in order (parent)
chain: GCUGUCACCGGUGUAUUACCCUAGUGGUCGACCGGUCUGAUGAGUCUNNNNNNAGACGAAACAGC

Columns and labels:
hypoxanthine [1] = variants of: B1; experiment: normalized RNA/DNA level with ligand (relative to sTRSVctl = 100) (log10 (% of sTRSVctl)); ligand: hypoxanthine (xanthine aptamer); higher = less ribozyme self-cleavage, higher mRNA level; conditions: ligand concentration (+) RNA-Seq: 5 mM, HEK293T, reporter: mCherry (pCS4076), ligand present: yes
Summary of the method: (§1)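 For each 6-well well, 4 µg of library plasmid encoding mCherry-linked ribozyme switches, or eGFP-linked ones in some ligand experiments, was transfected into HEK293T. Any ligand was added 1 h before transfection, and RNA was extracted with EDTA 72 h after it, then reverse-transcribed, amplified, barcoded and sequenced. RNA level was obtained by dividing RNA reads by DNA reads, normalizing to a spiked-in non-cleaving sequence or to the top sequences, then scaling and log-transforming. The top set was 25 sequences, scaling was ×100 with log10, and ≥100 DNA reads were required.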

hypoxanthine [2] = variants of: B1; experiment: normalized RNA/DNA level without ligand (relative to sTRSVctl = 100) (log10 (% of sTRSVctl)); ligand: hypoxanthine (xanthine aptamer); higher = less ribozyme self-cleavage, higher mRNA level; conditions: HEK293T, reporter: mCherry (pCS4076), ligand present: no
Summary of the method: as §1

| Variant | normalized RNA/DNA level with ligand (log10) (hypoxanthine [1]) | normalized RNA/DNA level without ligand (log10) (hypoxanthine [2]) |
| --- | --- | --- |
| GCUGUCACCGGUGUAUUACCCUAGUGGUCGACCGGUCUGAUGAGUCUGGGACAAGACGAAACAGC | 1.938 ± 0.016 | 1.802 ± 0.011 |
| GCUGUCACCGGUGUAUUACCCUAGUGGUCGACCGGUCUGAUGAGUCUCGCUUAAGACGAAACAGC | 1.861 ± 0.0029 | 1.7 ± 0.036 |
| GCUGUCACCGGUGUAUUACCCUAGUGGUCGACCGGUCUGAUGAGUCUCGCUUUAGACGAAACAGC | 1.911 ± 0.01 | 1.859 ± 0.009 |
| GCUGUCACCGGUGUAUUACCCUAGUGGUCGACCGGUCUGAUGAGUCUCGCUUGAGACGAAACAGC | 1.91 ± 0.07 | 1.93 ± 0.076 |
| GCUGUCACCGGUGUAUUACCCUAGUGGUCGACCGGUCUGAUGAGUCUCGCUUCAGACGAAACAGC | 1.996 ± 0.0043 | 1.92 ± 0.14 |
| GCUGUCACCGGUGUAUUACCCUAGUGGUCGACCGGUCUGAUGAGUCUCGGAACAGACGAAACAGC | 1.85 ± 0.026 | 1.51 ± 0.072 |
| GCUGUCACCGGUGUAUUACCCUAGUGGUCGACCGGUCUGAUGAGUCUCGCUGGAGACGAAACAGC | 1.889 ± 0.0061 | 1.42 ± 0.024 |
| GCUGUCACCGGUGUAUUACCCUAGUGGUCGACCGGUCUGAUGAGUCUCGCUGUAGACGAAACAGC | 1.94 ± 0.06 | 1.9375 ± 0.00087 |
| GCUGUCACCGGUGUAUUACCCUAGUGGUCGACCGGUCUGAUGAGUCUUGCUGGAGACGAAACAGC | 1.95 ± 0.04 | 1.707 ± 0.011 |
| GCUGUCACCGGUGUAUUACCCUAGUGGUCGACCGGUCUGAUGAGUCUUGCUGCAGACGAAACAGC | 1.972 ± 0.011 | 1.958 ± 0.006 |
| GCUGUCACCGGUGUAUUACCCUAGUGGUCGACCGGUCUGAUGAGUCUUGCUGUAGACGAAACAGC | 1.95 ± 0.0027 | 1.92 ± 0.03 |
| GCUGUCACCGGUGUAUUACCCUAGUGGUCGACCGGUCUGAUGAGUCUAGCUUUAGACGAAACAGC | 1.94 ± 0.032 | 1.908 ± 0.0022 |
| GCUGUCACCGGUGUAUUACCCUAGUGGUCGACCGGUCUGAUGAGUCUAGCUUAAGACGAAACAGC | 1.91 ± 0.057 | 1.85 ± 0.0089 |
| GCUGUCACCGGUGUAUUACCCUAGUGGUCGACCGGUCUGAUGAGUCUUGCUCUAGACGAAACAGC | 1.91 ± 0.042 | 1.949 ± 0.017 |
| GCUGUCACCGGUGUAUUACCCUAGUGGUCGACCGGUCUGAUGAGUCUUGGAAAAGACGAAACAGC | 1.91 ± 0.02 | 1.7 ± 0.039 |
| GCUGUCACCGGUGUAUUACCCUAGUGGUCGACCGGUCUGAUGAGUCUUGGAACAGACGAAACAGC | 1.89 ± 0.032 | 1.78 ± 0.034 |
| GCUGUCACCGGUGUAUUACCCUAGUGGUCGACCGGUCUGAUGAGUCUUGGAAGAGACGAAACAGC | 1.871 ± 0.018 | 1.556 ± 0.01 |
| GCUGUCACCGGUGUAUUACCCUAGUGGUCGACCGGUCUGAUGAGUCUAGGACAAGACGAAACAGC | 1.89 ± 0.066 | 1.71 ± 0.042 |
| GCUGUCACCGGUGUAUUACCCUAGUGGUCGACCGGUCUGAUGAGUCUAGCUCUAGACGAAACAGC | 1.96 ± 0.033 | 1.89 ± 0.04 |
| GCUGUCACCGGUGUAUUACCCUAGUGGUCGACCGGUCUGAUGAGUCUGGCUCUAGACGAAACAGC | 2.03 ± 0.066 | 1.99 ± 0.064 |
| GCUGUCACCGGUGUAUUACCCUAGUGGUCGACCGGUCUGAUGAGUCUAGCUGUAGACGAAACAGC | 1.938 ± 0.0047 | 1.75 ± 0.028 |
